Results taken from IntAct's records for PubMed 20185822.

B1: Autoimmune regulator (Homo sapiens), O43918 (parent)
chain: MATDAALRRLLRLHRTEIAVAVDSAFPLLHALADHDVVPEDKFQETLHLKEKEGCPQAFHALLSWLLTQDSTAILDFWRVLFKDYNLERYGRLQPILDSFPKDVDLSQPRKGRKPPAVPKALVPPPRLPTKRKASEEARAAAPAALTPRGTASPGSQLKAKPPKKPESSAEQQRLPLGNGIQTMSASVQRAVAMSSGDVPGARGAVEGILIQQVFESGGSKKCIQVGGEFYTPSKFEDSGSGKNKARSSSGPKPLVRAKGAQGAAPGGGEARLGQQGSVPAPLALPSDPQLHQKNEDECAVCRDGGELICCDGCPRAFHLACLSPPLREIPSGTWRCSSCLQATVQEVQPRAEEPRPQEPPVETPLPPGLRSAGEEVRGPPGEPLAGMDTTLVYKHLPAPPSAAPLPGLDSSALHPLLCVGPEGQQNLAPGARCGVCGDGTDVLRCTHCAAAFHWRCHFPAGTSRPGTGLRCRSCSGDVTPAPVEGVLAPSPARLAPGPAKDDTASHEPALHRDDLESLLSEHTFDGILQWAIQSMARPAAPFPS

Variants of: B1
Conditions: with daxx_human DAXX

Variant | effect of a mutation on the interaction
W78R | decreasing interaction
